The labels stand for the following.
B1: anti-TrkB clone 4D01 (antibody, V domains shown)
VH: EVQLVQSGAEVKKPGESLKISCKGSRYSFTSYWIGWVRQMPGKGLEWMGIIYPGDSDTRYSPSFQGQVTISADKSISTAYLQWSSLKASDTAMYYCARLKDGAFDIWGQGTMVTVSS
VL: QAVLTQPPSASGTPGQRVTISCSGSSSNIEGNYVHWYQQLPGAAPKVLIYRNNQRPSGVPDRFSGSKSGTSASLAISGLRSEDETDYFCAAWDDSLNGYVFGAGTKVTVL
notes: full-length IgG
B2: anti-TrkB clone 2H05 (antibody, V domains shown)
VH: EVQLVESGAEVKKPGESLRISCKGSGYSFTNNWINWVRQMPGKGLEWMGRIDPDDSYTNYSPSFQGHVIFSADKSSNTVYLQWSSLEASDTAMYYCARRAQGGGGYDYWGQGTLVTVSS
VL: QSVLTQPSSVSGAPGQRVTISCTGSSSNIGAGYGVHWYQQLPGTAPKLLIYDDINRPSGVPDRFSGSKSGTSASLAITGLRAEDEADYYCQSYDTSRGGLYVFGSGTKLTVL
notes: full-length IgG
B3: anti-TrkB clone 3B06 (antibody, V domains shown)
VH: EVQLVQSGAEVKEPGASVKVSCKASGYTFTNYAMHWVRQAPGQRLEWMGWINPNTGGTNYAQKFQGRVTMTRDTSISTAYMELSSLRSDDTAVYYCARGGGGLVFWGQGTLVTVSS
VL: DIVMTQTPLSLPVTLGQPASISCRSSQSLVDRDGNTYLNWFRQRPGQSPRRLIYKVSNRDSGVPGTFSGSGSGTDFTLKISRVEADDVGVYFCMQATHWPPTFGQGTKVEI
notes: full-length IgG
B4: anti-TrkB clone 2E08 (antibody, V domains shown)
VH: QVQLVQSGAEVKKPGESLKISCTGSGYRFSHYWIGWVRQMPGKGLEWMGMIYPDDSDTRYSPSFQGQVTISADKSINTAYLQWTSLRASDSAIYYCATGVISGTDYWGQGTLVTVSS
VL: SYVLTQPPSVSVSPGQTARITCSGDKLGDKYVSWYQLKPGQSPVVVIYQDNKRPSGIPERFSASNSENTGTLTISGTQAMDEADYYCQTWDSGTGVFGTGTKLTVL
notes: full-length IgG
B5: anti-TrkB clone 3D06 (antibody, V domains shown)
VH: EVQLVQSGAEVKKPGESLKISCQGSGYTFTNYWIAWVRQMPGKGLEWMGIIYPGDSDTRYSPSFQGQVTISADKSISTAYLQWSSLKASDTAMYYCAIGYDYGAFDIWGQGTMVTVSS
VL: QPVLTQPPSASGTPGQRVSISCSGSNSNIGSNSVYWYQQLPGTAPKLLIYRNNQRPSGVPDRFSGSKSGTSASLAISGLRSEDEADYYCAAWDDSLSGYVFGTGTQLTVL
notes: full-length IgG
B6: anti-TrkB clone 3D03 (antibody, V domains shown)
VH: EVQLVQSGAEVKKPGESLKISCKGSGYSFTSYWIGWVRQMPGKGLEWMGIIYPGDSDTRYSPSFQGQVTISADKSISTAYLQWSSLKASDTAMYYCARLGGSLPIDYWGQGTLVTVSS
VL: QSVLTQPPSVSVSPGQTASITCSGDKLGDKYVSWYQQKPGQSPVLVIYQDSKRPSGIPERFSGSNSGSTATLTISGTQALDEADYYCQAWDNNIGVFGGGTKLTVL
notes: full-length IgG
B7: anti-TrkB chicken-derived clone B1.2 (antibody, V domains shown)
VH: AVTLDESGGGLQTPGGGLSLVCKASGFTFSNHQMAWVRQAPGKGLEYVGLINAAGSWTYYGTAVKGRATISRDNGQSTVRLQLNNLRAEDTATYYCAKDVYGYCSTCGATIDTWGHGTEVIVSS
VL: QAALTQPSSVSANPGETVKITCSGPTYDYGWFQQKSPGSAPVTVIYYNDNRPSDIPSRFSGSKSGSTATLTITGVQAEDEAVYYCGTYEDNNGASFGAGTTLTVL
notes: chimeric chicken-human mAb
B8: anti-TrkB chicken-derived clone B5 (antibody, V domains shown)
VH: AVTLDESGGGLQTPGGALSLVCKASGFTFSSFPMVWVRQAPGKGLEFVAGIVRTSTPKYGAAVTGRATISRDNGQSTVRLQLNNLRAEDTGTYFCAKSATICGNCPEDIDAWGHGTEVIVSS
VL: QAALTQPASVSANPGETVKITCSGGSSDYGWFQQKSPGSAPVTVIYYSDKRPSDIPSRFSGSTSGSMGALIITGVQAEDEAVYFCGSRDSSNVAIFGAGTTLTVL
notes: chimeric chicken-human mAb
B9: anti-TrkB chicken-derived clone E2 (antibody, V domains shown)
VH: AVTLDESGGGLQTPGGALSLVCKASGFDFSSNAMGWVRQAPGKGLEFIASITTDGSYTTYGAAVKGRATISRDDGQSTLRLQLNNLRAEDTATYYCAKDSSIHWNGYDIDAWGHGTEVIVSS
VL: QAALTQPSSVSANPGETVKITCSGSINNYGWYQQKSPGSAPVTVIYQNDKRPSDIPSRFSGSKSGSTGTLTITGVQAEDEAVYFCGSEDSRTYLGIFGAGTTLTVL
notes: chimeric chicken-human mAb
B10: anti-TrkB chicken-derived clone F5 (antibody, V domains shown)
VH: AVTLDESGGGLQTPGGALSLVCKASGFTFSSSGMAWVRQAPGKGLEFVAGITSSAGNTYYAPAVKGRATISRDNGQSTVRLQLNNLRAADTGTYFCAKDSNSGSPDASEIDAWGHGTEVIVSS
VL: QAALTQPASVSANPGETVKITCSGYKSYYGWYQQKSPGSAPVTVIYDNTNRPSNIPSRFSGSTSGSTATLTITGVQADDEAVYYCGNADHSYVGVFGAGTTLTVL
notes: chimeric chicken-human mAb
B11: anti-TrkB chicken-derived clone D5 (antibody, V domains shown)
VH: AVTLDESGGGLQTPGGPLSLVCEGSGFTFSSYGMAWVRQAPGKRLEWVASISSTGINAYYGAAVKGRATISRDNGQSTVRLQLNNLRAEDTGIYYCSKCAYSGSCSTSIDAWGHGTEVIVSS
VL: QAALTQPASVSANLGGTVEITCSGGSSGYGYGWYQQKSPGSAPVTVIYNNNNRPSDIPSRFSGSLSDSTHTLTITGVRAEDEAVYFCGAWESSATDIFGAGTTLTVL
notes: chimeric chicken-human mAb

One assay deals with T1, human TrkB-ECD-GST (human, UniProt Q16620 32-430).
T1 construct: in-house fusion, HEK293; also called hTrkB-ECD-GST; human TrkB-GST; not shown: glutathione S-transferase (GST) fusion part
Kind of assay: ELISA.
As for B1, the binding result is listed as “no binding (tested: up to 10 µg/mL)”.

Turning to B2, the binding result is recorded as “no binding (tested: up to 10 µg/mL)”.

For B3, the binding result is on record as “no binding (tested: up to 10 µg/mL)”.

Consider B4, for which the binding result is listed as “no binding (tested: up to 10 µg/mL)”.

As for B5, the binding result is given as “no binding (tested: up to 10 µg/mL)”.

Turning to B6, the binding result is “no binding (tested: up to 10 µg/mL)”.

The next assay addresses T2, mouse TrkB-ECD-GST (mouse, UniProt P15209 32-429).
T2 construct: extracellular domain; in-house fusion, HEK293; also called mTrkB-ECD-GST; mTrkB (ELISA); not shown: glutathione S-transferase (GST) fusion part
Description: ELISA.
For B1, the binding result is listed as “no binding (tested: up to 10 µg/mL)”.

As to B2, the binding result is given as “no binding (tested: up to 10 µg/mL)”.

With B3, the binding result was “no binding (tested: up to 10 µg/mL)”.

For the molecule B4, the binding result was “no binding (tested: up to 10 µg/mL)”.

B5: the binding result is “no binding (tested: up to 10 µg/mL)”.

Consider B6, for which the binding result is “no binding (tested: up to 10 µg/mL)”.

The target in a further assay is TrkB in PathHunter eXpress TrkB Functional Assay cells (modified U2OS). Kind of assay: cell-based or functional assay.
Regarding B7, the “TrkB activation (EC50)” value was found to be 0.0075 µg/mL.

Take B8: the “TrkB activation (EC50)” value is 0.0089 µg/mL.

In the case of B9, the “TrkB activation (EC50)” value stood at 0.17 µg/mL.

In the case of B10, the “TrkB activation (EC50)” value is 0.046 µg/mL.

For the molecule B11, the “TrkB activation (EC50)” value was determined as 0.18 µg/mL.

The next assay deals with T3, human TrkB-His (human, UniProt Q16620 32-430).
T3 construct: in-house fusion of the TrkB ECD with poly-His, HEK293; also called huTrkB-His; hTrkB-His; not shown: poly-His tag
Kind of assay: BLI off-rate, mAb immobilized, 300 nM TrkB-His.
For orientation: koff means the first-order rate constant of dissociation. High values mean fast dissociation, low ones slow dissociation. The molecule B7 had a koff of 0.000483 s⁻¹.

In turn, B8 returned a koff of 0.00114 s⁻¹.

Molecule B9 displayed a koff of 0.000575 s⁻¹.

Take B10: the koff was 0.00163 s⁻¹.

As to B11, the koff worked out at 0.000219 s⁻¹.
